Reference: PMC12317982

B1: EMC1-FLAG [human] / BCAP31, Strep-tagged [not stated] (parent)
chain 1: YEDQVGKFDWRQQYVGKVKFASLEFSPGSKKLVVATEKNVIAALNSRTGEILWRHVDKGTAEGAVDAMLLHGQDVITVSNGGRIMRSWETNIGGLNWEITLDSGSFQALGLVGLQESVRYIAVLKKTTLALHHLSSGHLKWVEHLPESDSIHYQMVYSYGSGVVWALGVVPFSHVNIVKFNVEDGEIVQQVRVSTPWLQHLSGACGVVDEAVLVCPDPSSRSLQTLALETEWELRQIPLQSLDLEFGSGFQPRVLPTQPNPVDASRAQFFLHLSPSHYALLQYHYGTLSLLKNFPQTALVSFATTGEKTVAAVMACRNEVQKSSSSEDGSMGSFSEKSSSKDSLACFNQTYTINLYLVETGRRLLDTTITFSLEQSGTRPERLYIQVFLKKDDSVGYRALVQTEDHLLLFLQQLAGKVVLWSREESLAEVVCLEMVDLPLTGAQAELEGEFGKKADGLLGMFLKRLSSQLILLQAWTSHLWKMFYDARKPRSQIKNEINIDTLARDEFNLQKMMVMVTASGKLFGIESSSGTILWKQYLPNVKPDSSFKLMVQRTTAHFPHPPQCTLLVKDKESGMSSLYVFNPIFGKWSQVAPPVLKRPILQSLLLPVMDQDYAKVLLLIDDEYKVTAFPATRNVLRQLHELAPSIFFYLVDAEQGRLCGYRLRKDLTTELSWELTIPPEVQRIVKVKGKRSSEHVHSQGRVMGDRSVLYKSLNPNLLAVVTESTDAHHERTFIGIFLIDGVTGRIIHSSVQKKAKGPVHIVHSENWVVYQYWNTKARRNEFTVLELYEGTEQYNATAFSSLDRPQLPQVLQQSYIFPSSISAMEATITERGITSRHLLIGLPSGAILSLPKALLDPRRPEIPTEQSREENLIPYSPDVQIHAERFINYNQTVSRMRGIYTAPSGLESTCLVVAYGLDIYQTRVYPSKQFDVLKDDYDYVLISSVLFGLVFATMITKRLAQVKLLNRAWR
chain 2: MSLQWTAVATFLYAEVFVVLLLCIPFISPKRWQKIFKSRLVELLVSYGNTFFVVLIVILVLLVIDAVREIRKYDDVTEKVNLQNNPGAMEHFHMKLFRAQRNLYIAGFSLLLSFLLRRLVTLISQQATLLASNEAFKKQAESASEAAKKYMEENDQLKKGAAVDGGKLDVGNAEVKLEEENRSLKADLQKLKDELASTKQKLEKAENQVLAMRKQSEGLTKEYDRLLEEHAKLQAAVDGPMDKKEE
B2: EMC1-FLAG [human] / TMEM38B, Strep-tagged [not stated] (parent)
chain 1: B1 chain 1
chain 2: MDSPWDELALAFSRTSMFPFFDIAHYLVSVMAVKRQPGAAALAWKNPISSWFTAMLHCFGGGILSCLLLAEPPLKFLANHTNILLASSIWYITFFCPHDLVSQGYSYLPVQLLASGMKEVTRTWKIVGGVTHANSYYKNGWIVMIAIGWARGAGGTIITNFERLVKGDWKPEGDEWLKMSYPAKVTLLGSVIFTFQHTQHLAISKHNLMFLYTIFIVATKITMMTTQTSTMTFAPFEDTLSWMLFGWQQPFSSCEKKSEAKSPSNGVGSLASKPVDVASDNVKKKHTKKNE
B3: EMC1-FLAG [human] / SLC3A2, Strep-tagged [not stated] (parent)
chain 1: B1 chain 1
chain 2: MSQDTEVDMKEVELNELEPEKQPMNAASGAAMSLAGAEKNGLVKIKVAEDEAEAAAAAKFTGLSKEELLKVAGSPGWVRTRWALLLLFWLGWLGMLAGAVVIIVRAPRCRELPAQKWWHTGALYRIGDLQAFQGHGAGNLAGLKGRLDYLSSLKVKGLVLGPIHKNQKDDVAQTDLLQIDPNFGSKEDFDSLLQSAKKKSIRVILDLTPNYRGENSWFSTQVDTVATKVKDALEFWLQAGVDGFQVRDIENLKDASSFLAEWQNITKGFSEDRLLIAGTNSSDLQQILSLLESNKDLLLTSSYLSDSGSTGEHTKSLVTQYLNATGNRWCSWSLSQARLLTSFLPAQLLRLYQLMLFTLPGTPVFSYGDEIGLDAAALPGQPMEAPVMLWDESSFPDIPGAVSANMTVKGQSEDPGSLLSLFRRLSDQRSKERSLLHGDFHAFSAGPGLFSYIRHWDQNERFLVVLNFGDVGLSAGLQASDLPASASLPAKADLLLSTQPGREEGSPLELERLKLEPHEGLLLRFPYAA

Variants of: B1
Assay: co-IP and immunoblot (quantified)
Conditions: with BCAP31, Strep-tagged;; read off a plot

For chain 1 V941K S944K S945K, which ratio to parent is on record?
The ratio to parent was 0.57.

For chain 1 F948A F952A, which ratio to parent is on record?
The ratio to parent was 0.75.

Variants of: B2
Assay: co-IP and immunoblot (quantified)
Conditions: with TMEM38B, read off a plot

For chain 1 F948A F952A, which ratio to parent is on record?
Its ratio to parent is 0.4.

For chain 1 V941K S944K S945K, which ratio to parent is on record?
Its ratio to parent is 0.78.

Variants of: B3
Assay: co-IP and immunoblot (quantified)
Conditions: with SLC3A2, Strep-tagged;; read off a plot

For chain 1 F948A F952A, which ratio to parent is on record?
Its ratio to parent is 0.87.

For chain 1 V941K S944K S945K, which ratio to parent is on record?
Its ratio to parent is 0.51.
